Source: the supplement of paper PMC5998384

Experiments:
HeLa Kyoto [1] = test: solubility in G1/S (NP-40 vs SDS abundance) (log2 ratio); higher = more soluble; conditions: cell cycle stage: G1/S
HeLa Kyoto [2] = test: melting temperature (median over replicates), in situ; higher = more thermally stable
HeLa Kyoto [3] = test: solubility change mitosis vs G1/S (difference of NP-40 vs SDS log2 ratios) (log2 ratio difference); higher = more soluble in mitosis
HeLa Kyoto [4] = test: thermal stability score vs G1/S (z-score of summed log2 fold changes over temperatures); higher = more thermally stable than in G1/S
[5] = cell cycle stage: early G1 (4.5 h after nocodazole release)
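Throughout, for melting temperature (median over replicates), in situ: HeLa Kyoto cells synchronized by double thymidine or nocodazole block, proteins quantified by TMT10plex mass spectrometry, three independent biological replicates.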
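Throughout, for solubility change mitosis vs G1/S (difference of NP-40 vs SDS log2 ratios): synchronized HeLa Kyoto cells (double thymidine block for G1/S, nocodazole release for mitosis), protein amounts in NP-40 versus SDS lysates quantified by mass spectrometry, three biological replicates.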
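Throughout, for solubility in G1/S (NP-40 vs SDS abundance): HeLa Kyoto cells arrested at G1/S by double thymidine block, proteins quantified by TMT10plex mass spectrometry in mild NP-40 versus SDS extracts, three biological replicates.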
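Throughout, for thermal stability score vs G1/S (z-score of summed log2 fold changes over temperatures): synchronized HeLa Kyoto cells, proteins quantified by TMT10plex mass spectrometry, three biological replicates, mitosis taken 0.5 h after nocodazole release, G1/S directly after double thymidine block.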

Sequence	solubility in G1/S (log2) (HeLa Kyoto [1])	melting temperature (HeLa Kyoto [2]; cell cycle stage: G1/S) [°C]	melting temperature (HeLa Kyoto [2]; cell cycle stage: mitosis) [°C]	solubility change mitosis (log2) (HeLa Kyoto [3])	thermal stability score (HeLa Kyoto [4]; [5])	thermal stability score (HeLa Kyoto [4]; cell cycle stage: mitosis)
MKLKQRVVLLAILLVIFIFTKVFLIDNLDTSAANREDQRAFHRMMTGLRVELAPKLDHTLQSPWEIAAQWVVPREVYPEETPELGAVMHAMATKKIIKADVGYKGTQLKALLILEGGQKVVFKPKRYSRDHVVEGEPYAGYDRHNAEVAAFHLDRILGFHRAPLVVGRFVNLRTEIKPVATEQLLSTFLTVGNNTCFYGKCYYCRETEPACADGDIMEGSVTLWLPDVWPLQKHRHPWGRTYREGKLARWEYDESYCDAVKKTSPYDSGPRLLDIIDTAVFDYLIGNADRHHYESFQDDEGASMLILLDNAKSFGNPSLDERSILAPLYQCCIIRVSTWNRLNYLKNGVLKSALKSAMAHDPISPVLSDPHLDAVDQRLLSVLATVKQCTDQFGMDTVLVEDRMPLSHL [FAM20B]	-0.162	51.8	53.3	0.0415	2.65	2.53
MKLSLTKVVNGCRLGKIKNLGKTGDHTMDIPGCLLYTKTGSAPHLTHHTLHNIHGVPAMAQLTLSSLAEHHEVLTEYKEGVGKFIGMPESLLYCSLHDPVSPCPAGYVTNKSVSVWSVAGRVEMTVSKFMAIQKALQPDWFQCLSDGEVSCKEATSIKRVRKSVDRSLLFLDNCLRLQEESEVLQKSVIIGVIEGGDVMEERLRSARETAKRPVGGFLLDGFQGNPTTLEARLRLLSSVTAELPEDKPRLISGVSRPDEVLECIERGVDLFESFFPYQVTERGCALTFSFDYQPNPEETLLQQNGTQEEIKCMDQIKKIETTGCNQEITSFEINLKEKKYQEDFNPLVRGCSCYCCKNHTRAYIHHLLVTNELLAGVLLMMHNFEHYFGFFHYIREALKSDKLAQLKELIHRQAS [QTRTD1]	0.116	54.6	54.3	-0.121	-0.725	-2.32
MKLWVSALLMAWFGVLSCVQAEFFTSIGHMTDLIYAEKELVQSLKEYILVEEAKLSKIKSWANKMEALTSKSAADAEGYLAHPVNAYKLVKRLNTDWPALEDLVLQDSAAGFIANLSVQRQFFPTDEDEIGAAKALMRLQDTYRLDPGTISRGELPGTKYQAMLSVDDCFGMGRSAYNEGDYYHTVLWMEQVLKQLDAGEEATTTKSQVLDYLSYAVFQLGDLHRALELTRRLLSLDPSHERAGGNLRYFEQLLEEEREKTLTNQTEAELATPEGIYERPVDYLPERDVYESLCRGEGVKLTPRRQKRLFCRYHHGNRAPQLLIAPFKEEDEWDSPHIVRYYDVMSDEEIERIKEIAKPKLARATVRDPKTGVLTVASYRVSKSSWLEEDDDPVVARVNRRMQHITGLTVKTAELLQVANYGVGGQYEPHFDFSRNDERDTFKHLGTGNRVATFLNYMSDVEAGGATVFPDLGAAIWPKKGTAVFWYNLLRSGEGDYRTRHAACPVLVGCKWVSNKWFHERGQEFLRPCGSTEVD [P4HA2]	0.0555	54.2	54.1	-0.0711	2.83	4.61
MKMKLFQTICRQLRSSKFSVESAALVAFSTSSYSCGRKKKVNPYEEVDQEKYSNLVQSVLSSRGVAQTPGSVEEDALLCGPVSKHKLPNQGEDRRVPQNWFPIFNPERSDKPNASDPSVPLKIPLQRNVIPSVTRVLQQTMTKQQVFLLERWKQRMILELGEDGFKEYTSNVFLQGKRFHEALESILSPQETLKERDENLLKSGYIESVQHILKDVSGVRALESAVQHETLNYIGLLDCVAEYQGKLCVIDWKTSEKPKPFIQSTFDNPLQVVAYMGAMNHDTNYSFQVQCGLIVVAYKDGSPAHPHFMDAELCSQYWTKWLLRLEEYTEKKKNQNIQKPEYSE [MGME1]	0.384	52.9	53.5	0.0664	-0.736	-1.05
MKPSGEDQAALAAGPWEECFQAAVQLALRAGQIIRKALTEEKRVSTKTSAADLVTETDHLVEDLIISELRERFPSHRFIAEEAAASGAKCVLTHSPTWIIDPIDGTCNFVHRFPTVAVSIGFAVRQELEFGVIYHCTEERLYTGRRGRGAFCNGQRLRVSGETDLSKALVLTEIGPKRDPATLKLFLSNMERLLHAKAHGVRVIGSSTLALCHLASGAADAYYQFGLHCWDLAAATVIIREAGGIVIDTSGGPLDLMACRVVAASTREMAMLIAQALQTINYGRDDEK [IMPA2]	0.109	58.2	60.1	-0.261	-0.528	-0.16
MKVVNLKQAILQAWKERWSDYQWAINMKKFFPKGATWDILNLADALLEQAMIGPSPNPLILSYLKYAISSQMVSYSSVLTAISKFDDFSRDLCVQALLDIMDMFCDRLSCHGKAEECIGLCRALLSALHWLLRCTAASAERLREGLEAGTPAAGEKQLAMCLQRLEKTLSSTKNRALLHIAKLEEASSWTAIEHSLLKLGEILANLSNPQLRSQAEQCGTLIRSIPTMLSVHAEQMHKTGFPTVHAVILLEGTMNLTGETQSLVEQLTMVKRMQHIPTPLFVLEIWKACFVGLIESPEGTEELKWTAFTFLKIPQVLVKLKKYSHGDKDFTEDVNCAFEFLLKLTPLLDKADQRCNCDCTNFLLQECGKQGLLSEASVNNLMAKRKADREHAPQQKSGENANIQPNIQLILRAEPTVTNILKTMDADHSKSPEGLLGVLGHMLSGKSLDLLLAAAAATGKLKSFARKFINLNEFTTYGSEESTKPASVRALLFDISFLMLCHVAQTYGSEVILSESRTGAEVPFFETWMQTCMPEEGKILNPDHPCFRPDSTKVESLVALLNNSSEMKLVQMKWHEACLSISAAILEILNAWENGVLAFESIQKITDNIKGKVCSLAVCAVAWLVAHVRMLGLDEREKSLQMIRQLAGPLFSENTLQFYNERVVIMNSILERMCADVLQQTATQIKFPSTGVDTMPYWNLLPPKRPIKEVLTDIFAKVLEKGWVDSRSIHIFDTLLHMGGVYWFCNNLIKELLKETRKEHTLRAVELLYSIFCLDMQQVTLVLLGHILPGLLTDSSKWHSLMDPPGTALAKLAVWCALSSYSSHKGQASTRQKKRHREDIEDYISLFPLDDVQPSKLMRLLSSNEDDANILSSPTDRSMSSSLSASQLHTVNMRDPLNRVLANLFLLISSILGSRTAGPHTQFVQWFMEECVDCLEQGGRGSVLQFMPFTTVSELVKVSAMSSPKVVLAITDLSLPLGRQVAAKAIAAL [MED24]	-0.322	50.8	52.2	0.0385	1.11	1.86
MKYILVTGGVISGIGKGIIASSIGTILKSCGLRVTAIKIDPYINIDAGTFSPYEHGEVFVLNDGGEVDLDLGNYERFLDINLYKDNNITTGKIYQHVINKERRGDYLGKTVQVVPHITDAVQEWVMNQAKVPVDGNKEEPQICVIELGGTIGDIEGMPFVEAFRQFQFKAKRENFCNIHVSLVPQLSATGEQKTKPTQNSVRALRGLGLSPDLIVCRSSTPIEMAVKEKISMFCHVNPEQVICIHDVSSTYRVPVLLEEQSIVKYFKERLHLPIGDSASNLLFKWRNMADRYERLQKICSIALVGKYTKLRDCYASVFKALEHSALAINHKLNLMYIDSIDLEKITETEDPVKFHEAWQKLCKADGILVPGGFGIRGTLGKLQAISWARTKKIPFLGVCLGMQLAVIEFARNCLNLKDADSTEFRPNAPVPLVIDMPEHNPGNLGGTMRLGIRRTVFKTENSILRKLYGDVPFIEERHRHRFEVNPNLIKQFEQNDLSFVGQDVDGDRMEIIELANHPYFVGVQFHPEFSSRPMKPSPPYLGLLLAATGNLNAYLQQGCKLSSSDRYSDASDDSFSEPRIAELEIS [CTPS2]	0.0287	57.1	57.2	-0.0719	-2.15	-1.98
MLAFAARTVVKPLGFLKPFSLMKASSRFKAHQDALPRLPVPPLQQSLDHYLKALQPIVSEEEWAHTKQLVDEFQASGGVGERLQKGLERRARKTENWLSEWWLKTAYLQYRQPVVIYSSPGVMLPKQDFVDLQGQLRFAAKLIEGVLDFKVMIDNETLPVEYLGGKPLCMNQYYQILSSCRVPGPKQDTVSNFSKTKKPPTHITVVHNYQFFELDVYHSDGTPLTADQIFVQLEKIWNSSLQTNKEPVGILTSNHRNSWAKAYNTLIKDKVNRDSVRSIQKSIFTVCLDATMPRVSEDVYRSHVAGQMLHGGGSRLNSGNRWFDKTLQFIVAEDGSCGLVYEHAAAEGPPIVTLLDYVIEYTKKPELVRSPLVPLPMPKKLRFNITPEIKSDIEKAKQNLSIMIQDLDITVMVFHHFGKDFPKSEKLSPDAFIQMALQLAYYRIYGQACATYESASLRMFHLGRTDTIRSASMDSLTFVKAMDDSSVTEHQKVELLRKAVQAHRGYTDRAIRGEAFDRHLLGLKLQAIEDLVSMPDIFMDTSYAIAMHFHLSTSQVPAKTDCVMFFGPVVPDGYGVCYNPMEAHINFSLSAYNSCAETNAARLAHYLEKALLDMRALLQSHPRAKL [CRAT]	-0.0625	49.4	49.4	-0.142	1.13	1.4
MLAVHFDKPGGPENLYVKEVAKPSPGEGEVLLKVAASALNRADLMQRQGQYDPPPGASNILGLEASGHVAELGPGCQGHWKIGDTAMALLPGGGQAQYVTVPEGLLMPIPEGLTLTQAAAIPEAWLTAFQLLHLVGNVQAGDYVLIHAGLSGVGTAAIQLTRMAGAIPLVTAGSQKKLQMAEKLGAAAGFNYKKEDFSEATLKFTKGAGVNLILDCIGGSYWEKNVNCLALDGRWVLYGLMGGGDINGPLFSKLLFKRGSLITSLLRSRDNKYKQMLVNAFTEQILPHFSTEGPQRLLPVLDRIYPVTEIQEAHKYMEANKNIGKIVLELPQ [TP53I3]	0.373	58.7	57.3	-0.199	-2.64	-1.51
MLCWGNASFGQLGLGGIDEEIVLEPRKSDFFINKRVRDVGCGLRHTVFVLDDGTVYTCGCNDLGQLGHEKSRKKPEQVVALDAQNIVAVSCGEAHTLALNDKGQVYAWGLDSDGQLGLVGSEECIRVPRNIKSLSDIQIVQVACGYYHSLALSKASEVFCWGQNKYGQLGLGTDCKKQTSPQLLKSLLGIPFMQVAAGGAHSFVLTLSGAIFGWGRNKFGQLGLNDENDRYVPNLLKSLRSQKIVYICCGEDHTAALTKEGGVFTFGAGGYGQLGHNSTSHEINPRKVFELMGSIVTEIACGRQHTSAFVPSSGRIYSFGLGGNGQLGTGSTSNRKSPFTVKGNWYPYNGQCLPDIDSEEYFCVKRIFSGGDQSFSHYSSPQNCGPPDDFRCPNPTKQIWTVNEALIQKWLSYPSGRFPVEIANEIDGTFSSSGCLNGSFLAVSNDDHYRTGTRFSGVDMNAARLLFHKLIQPDHPQISQQVAASLEKNLIPKLTSSLPDVEALRFYLTLPECPLMSDSNNFTTIAIPFGTALVNLEKAPLKVLENWWSVLEPPLFLKIVELFKEVVVHLLKLYKIGIPPSERRIFNSFLHTALKVLEILHRVNEKMGQIIQYDKFYIHEVQELIDIRNDYINWVQQQAYGMDVNHGLTELADIPVTICTYPFVFDAQAKTTLLQTDAVLQMQMAIDQAHRQNVSSLFLPVIESVNPCLILVVRRENIVGDAMEVLRKTKNIDYKKPLKVIFVGEDAVDAGGVRKEFFLLIMRELLDPKYGMFRYYEDSRLIWFSDKTFEDSDLFHLIGVICGLAIYNCTIVDLHFPLALYKKLLKKKPSLDDLKELMPDVGRSMQQLLDYPEDDIEETFCLNFTITVENFGATEVKELVLNGADTAVNKQNRQEFVDAYVDYIFNKSVASLFDAFHAGFHKVCGGKVLLLFQPNELQAMVIGNTNYDWKELEKNTEYKGEYWAEHPTIKIFWEVFHELPLEKKKQFLLFLTGSDRIPILGMKSLKLVIQSTGGGEEYLPVSHTCFNLLDLPKYTEKETLRSKLIQAIDHNEGFSLI [HERC4]	-0.169	51.4	51	-0.179	-0.179	-0.361
